Test results from article PMC10539301, “Structure of the human ATAD2 AAA+ histone chaperone reveals mechanism of regulation and inter-subunit communication” (Communications Biology, 2023).

How the values were obtained:
[1] = biological target: the molecule itself; assay: SEC + native gel or EMSA + other: negative stain electron microscopy; purified ATAD2 (aa 403-1390) variants; wild type in the absence and presence of ATP; Supplementary Fig. 1
[2] = biological target: Histone H4 (X. laevis, recombinant) (X. laevis, UniProt P62799 1-103); assay: cross-linking; DSS 1 mM, 30 min, 37 °C, in 25 mM HEPES pH 7.5, 150 mM NaCl, 5% glycerol, 1 mM DTT; sucrose gradient fraction of hexameric ATAD2; cross-links found by mass spectrometry (XL-MS); settings: both partners purified
[3] = biological target: T1, Histone H3/H4 complex (X. laevis, wild type, refolded) (X. laevis, UniProt P84233 1-136; P62799 1-103); assay: as above; settings: both partners purified
T1 construct: It was pooled as the H3/H4 tetramer in 2 M NaCl and diluted to 150 mM NaCl before mixing; also called wild type H3/H4

[4] = biological target: Histone H3 (X. laevis, recombinant) (X. laevis, UniProt P84233 1-136); assay: as above; settings: both partners purified
[5] = biological target: the molecule itself; assay: cryo-EM structure; ATAD2 Walker B mutant and refolded H3/H4 or H3/H4K5Q mixed 1:1.5 in 150 mM NaCl, cross-linked with 1 mM DSS, purified on a 10-30% sucrose gradient; vitrified at 1.2 mg/mL with 1 mM Mg-ATP; classes I-III at 3.8, 4.3, 4.3 Å

| Binder | binding result [1] | binding result [2] | binding result [3] | binding result [4] | stoichiometry N [5] |
| --- | --- | --- | --- | --- | --- |
| N-terminally truncated ATAD2 (aa 403-1390), wild type (domain or fragment, human, UniProt Q6PL18 403-1390, looked up, ATAD2 (ATPase family AAA domain-containing 2), human, aa 403-1390, from a codon-optimized synthetic full-length gene (Genscript); The vector has a Tev protease site after the 3xFlag tag; No cleavage step is described in the purification; also called wild type ATAD2) DRMKIGASLADVDPMQLDSSVRFDSVGGLSNHIAALKEMVVFPLLYPEVFEKFKIQPPRGCLFYGPPGTGKTLVARALANECSQGDKRVAFFMRKGADCLSKWVGESERQLRLLFDQAYQMRPSIIFFDEIDGLAPVRSSRQDQIHSSIVSTLLALMDGLDSRGEIVVIGATNRLDSIDPALRRPGRFDREFLFSLPDKEARKEILKIHTRDWNPKPLDTFLEELAENCVGYCGADIKSICAEAALCALRRRYPQIYTTSEKLQLDLSSINISAKDFEVAMQKMIPASQRAVTSPGQALSTVVKPLLQNTVDKILEALQRVFPHAEFRTNKTLDSDISCPLLESDLAYSDDDVPSVYENGLSQKSSHKAKDNFNFLHLNRNACYQPMSFRPRILIVGEPGFGQGSHLAPAVIHALEKFTVYTLDIPVLFGVSTTSPEETCAQVIREAKRTAPSIVYVPHIHVWWEIVGPTLKATFTTLLQNIPSFAPVLLLATSDKPHSALPEEVQELFIRDYGEIFNVQLPDKEERTKFFEDLILKQAAKPPISKKKAVLQALEVLPVAPPPEPRSLTAEEVKRLEEQEEDTFRELRIFLRNVTHRLAIDKRFRVFTKPVDPDEVPDYVTVIKQPMDLSSVISKIDLHKYLTVKDYLRDIDLICSNALEYNPDRDPGDRLIRHRACALRDTAYAIIKEELDEDFEQLCEEIQESRKKRGCSSSKYAPSYYHVMPKQNSTLVGDKRSDPEQNEKLKTPSTPVACSTPAQLKRKIRKKSNWYLGTIKKRRKISQAKDDSQNAIDHKIESDTEETQDTSVDHNETGNTGESSVEENEKQQNASESKLELRNNSNTCNIENELEDSRKTTACTELRDKIACNGDASSSQIIHISDENEGKEMCVLRMTRARRSQVEQQQLITVEKALAILSQPTPSLVVDHERLKNLLKTVVKKSQNYNIFQLENLYAVISQCIYRHRKDHDKTSLIQKMEQEVENFSCSR | binds |  |  |  |  |
| ATAD2 Walker B mutant (E532Q), aa 403-1390 (domain or fragment, human, UniProt Q6PL18 403-1390, looked up, ATAD2 (ATPase family AAA domain-containing 2), human, aa 403-1390, Walker B mutation E532Q; A Tev site follows the tag, and no cleavage step is described; also called ATAD2 (in the structure sections); not shown: 3xFlag, N-terminal, kept) DRMKIGASLADVDPMQLDSSVRFDSVGGLSNHIAALKEMVVFPLLYPEVFEKFKIQPPRGCLFYGPPGTGKTLVARALANECSQGDKRVAFFMRKGADCLSKWVGESERQLRLLFDQAYQMRPSIIFFDQIDGLAPVRSSRQDQIHSSIVSTLLALMDGLDSRGEIVVIGATNRLDSIDPALRRPGRFDREFLFSLPDKEARKEILKIHTRDWNPKPLDTFLEELAENCVGYCGADIKSICAEAALCALRRRYPQIYTTSEKLQLDLSSINISAKDFEVAMQKMIPASQRAVTSPGQALSTVVKPLLQNTVDKILEALQRVFPHAEFRTNKTLDSDISCPLLESDLAYSDDDVPSVYENGLSQKSSHKAKDNFNFLHLNRNACYQPMSFRPRILIVGEPGFGQGSHLAPAVIHALEKFTVYTLDIPVLFGVSTTSPEETCAQVIREAKRTAPSIVYVPHIHVWWEIVGPTLKATFTTLLQNIPSFAPVLLLATSDKPHSALPEEVQELFIRDYGEIFNVQLPDKEERTKFFEDLILKQAAKPPISKKKAVLQALEVLPVAPPPEPRSLTAEEVKRLEEQEEDTFRELRIFLRNVTHRLAIDKRFRVFTKPVDPDEVPDYVTVIKQPMDLSSVISKIDLHKYLTVKDYLRDIDLICSNALEYNPDRDPGDRLIRHRACALRDTAYAIIKEELDEDFEQLCEEIQESRKKRGCSSSKYAPSYYHVMPKQNSTLVGDKRSDPEQNEKLKTPSTPVACSTPAQLKRKIRKKSNWYLGTIKKRRKISQAKDDSQNAIDHKIESDTEETQDTSVDHNETGNTGESSVEENEKQQNASESKLELRNNSNTCNIENELEDSRKTTACTELRDKIACNGDASSSQIIHISDENEGKEMCVLRMTRARRSQVEQQQLITVEKALAILSQPTPSLVVDHERLKNLLKTVVKKSQNYNIFQLENLYAVISQCIYRHRKDHDKTSLIQKMEQEVENFSCSR |  | binds | binds | binds | 6 |
| ATAD2 LD/Walker B triple mutant (D415A/E532Q/R540A), aa 403-1390 (domain or fragment, human, UniProt Q6PL18 403-1390, looked up, ATAD2, human, aa 403-1390, with D415A, E532Q and R540A; source: SF9 cells (baculovirus), purified) DRMKIGASLADVAPMQLDSSVRFDSVGGLSNHIAALKEMVVFPLLYPEVFEKFKIQPPRGCLFYGPPGTGKTLVARALANECSQGDKRVAFFMRKGADCLSKWVGESERQLRLLFDQAYQMRPSIIFFDQIDGLAPVASSRQDQIHSSIVSTLLALMDGLDSRGEIVVIGATNRLDSIDPALRRPGRFDREFLFSLPDKEARKEILKIHTRDWNPKPLDTFLEELAENCVGYCGADIKSICAEAALCALRRRYPQIYTTSEKLQLDLSSINISAKDFEVAMQKMIPASQRAVTSPGQALSTVVKPLLQNTVDKILEALQRVFPHAEFRTNKTLDSDISCPLLESDLAYSDDDVPSVYENGLSQKSSHKAKDNFNFLHLNRNACYQPMSFRPRILIVGEPGFGQGSHLAPAVIHALEKFTVYTLDIPVLFGVSTTSPEETCAQVIREAKRTAPSIVYVPHIHVWWEIVGPTLKATFTTLLQNIPSFAPVLLLATSDKPHSALPEEVQELFIRDYGEIFNVQLPDKEERTKFFEDLILKQAAKPPISKKKAVLQALEVLPVAPPPEPRSLTAEEVKRLEEQEEDTFRELRIFLRNVTHRLAIDKRFRVFTKPVDPDEVPDYVTVIKQPMDLSSVISKIDLHKYLTVKDYLRDIDLICSNALEYNPDRDPGDRLIRHRACALRDTAYAIIKEELDEDFEQLCEEIQESRKKRGCSSSKYAPSYYHVMPKQNSTLVGDKRSDPEQNEKLKTPSTPVACSTPAQLKRKIRKKSNWYLGTIKKRRKISQAKDDSQNAIDHKIESDTEETQDTSVDHNETGNTGESSVEENEKQQNASESKLELRNNSNTCNIENELEDSRKTTACTELRDKIACNGDASSSQIIHISDENEGKEMCVLRMTRARRSQVEQQQLITVEKALAILSQPTPSLVVDHERLKNLLKTVVKKSQNYNIFQLENLYAVISQCIYRHRKDHDKTSLIQKMEQEVENFSCSR | binds |  |  |  |  |
